Substrate in data set [1]: NC(=O)C1=CN([C@@H]2O[C@H](COP(=O)(O)OP(=O)(O)OC[C@H]3O[C@@H](n4cnc5c(N)ncnc54)[C@H](OP(=O)(O)O)[C@@H]3O)[C@@H](O)[C@H]2O)C=CC1
The data set can be described thus: purified protein. As to conditions: NADPH varied 10 µM to 1.5 mM, excess FAD, 25 mM sodium phosphate pH 8.5, 30 °C, varied: cofactor. The data set is classed as biochemical, Caenorhabditis elegans.

Substrate in data set [2]: N[C@@H](Cc1c[nH]c2ccccc12)C(=O)O
Put plainly: purified protein. The format is biochemical, Caenorhabditis elegans. As to conditions: 0.5 mM NADPH, excess FAD, 0.04 µM FMO-2, 25 mM sodium phosphate pH 8.5, 0.5 mM DETAPAC, 30 °C.

B1: FMO-2 (CeFMO-2) (Caenorhabditis elegans) (protein)
chain: MGNKRVAVIGAGASGLPSIRHGLLYGFDVTCFEASDDIGGLWRYKSHETNESSVMKTTVINTSKEMTAYSDFTPQENLANFMHNNEMLNYFKSYAEHHGLMKHIKLRHRVLNIERSKNYDNDGTWKVIYQTPEEKTLEEIFDGVLVCSGHHAIPHWPKPFPGQNEFKGRIVHSHDYKDHKGYEDKVVVVVGIGNSGIDVAVEQSRIAKQVYLVTRRGTWLIPKLETRGLPFDIIMNTRFFSLYKLFPQAMLNSLVEYRINQRIDHDLYGLKPAHRVFSAHPSLNDELPNRIANGTVRIKPNIKKFDGYAIHFEDGTIVPHVDEVVMSTGFSFEFNLIEHGKLVPVSENEVDLFKYMFPVATSDHNSLCIIGLIQPFGSIMPVSEQQARVFFANMVSGNNLIPKKSQMSEDVLNKKEAMAQQFVKSRRHTIQVDYIPYMDELAELIGCQVPLLRTLFTDPVLGLRLFFGPNAGYCYRLAGPHTWNGARNAILTIDQRVRMATTTKPEPTNYTVPLVISSIILLLVIYFVM
notes: purified FMO-2 protein purchased from GenScript; assayed with excess FAD
Consider B1, for which the Michaelis-Menten constant (Km) in data set [1] is 2500 ± 1240 µM; in data set [2] it was 880 ± 430 µM. The figures for the kcat in data set [1] and in data set [2] were 264 ± 98 s⁻¹ and 9.7 ± 1.5 s⁻¹, respectively.

Values taken from article PMC9894935, “FMO rewires metabolism to promote longevity through tryptophan and one carbon metabolism in C. elegans” (Nature Communications, 2023).
